Measurements taken from patent US20240026407A1, “MODIFICATION OF SAPONINS” (GLAXOSMITHKLINE BIOLOGICALS SA, priority 2020, published 2024).
Positions count from the first letter of the chain named. In names and notes the source's numbering stands.

Legend:
[1] = Example 8: screening of glucosidase variants for deglycosylation of saponins in crude bark extract (FIOP); format: biochemical, Quillaja saponaria; details: for Cumulative FIOP (cf WT): estimate; for FIOP: fold improvement over parent
Experimental: Libraries of genetic variants encoding mutations in the wild type Modestobacter marinus glucosidase (SEQ ID No. 262) were prepared using molecular biology techniques, enzymes were prepared linked to an N-terminally located His-tag. Single monoclonal colonies were grown in 400 ul of expression medium and protein expressed. Cell pellets were lysed in 200 ul of the relevant buffer (Table 16)
Lysate was diluted appropriately in the relevant buffer to allow a lysate loading of the indicated % loading (1% loading corresponds to use of 2 ul original lysate in a 200 ul reaction). In some experiments a rhamnosidase was also present during the screening reaction (and also in controls, negating any impact on results).
Crude bark extract (CBE) obtained by aqueous extraction of Quillaja saponaria and containing at least 2.80 mg/ml QS-21 (by HPLC-UV). The pH of CBE was adjusted to pH 6 by dropwise addition of 2M NaOH with stirring. The relevant concentration of the relevant glucosidase was added. The appropriate relative volume of pH 6 CBE (160 ul (for 80%) or 150 ul (for 75%)) was added to each well of the reaction plate. The reaction plate was sealed and incubated at the relevant temperature with shaking overnight for between 18 and 22 hours.
The reaction plate was quenched by adding 200 uL of MeCN (2% AcOH, 1 mg/mL hexanophenone) to each well of the plates. The quenched reaction plate was re-sealed and incubated at 20 deg C. with shaking for 10 min. The reaction plate was then centrifuged (10 min, 4 degC).
200 uL was transferred from each well of the quenched plate to the corresponding wells of a fresh 96 well plate and sealed. The plate was analysed by UV HPLC with the method below:
A negative control (a lysate not expressing test enzymes) and a positive control (expressing the parent comparator—wild type or previous variant as appropriate). Fold improvement over parent (FIOP) for the glucosidase (shorter method) is calculated as follows:
% right peak=100*right peak area/(right peak area+left peak area)
Average % right peak area is calculated for negative controls (per plate) and subtracted from all wells to give the increase in % right peak for each well above average negative control Average increase in % right peak is calculated for positive controls per plate
FIOP=observed increase in % right peak divided by average positive control increase

[2] = Example 10: deglucosylation of saponins in crude bark extract (50%) using WT and engineered glucosidases G1 to G5; format: biochemical, Quillaja saponaria; details: 7 h, 50% CBE, 35 degC; for % Right Peak: starting CBE 26; for % Left Peak: starting CBE 30; for % Middle Peak: starting CBE 44
Experimental: Lyophilised powders from clarified cell lysate expressing glucosidases (from Example 8 WT glucosidase and engineered glucosidase polypeptides G1 to G5) and rhamnosidases (from Example 9 WT rhamnosidase and engineered rhamnosidase polypeptides R1 to R5) were dissolved in 200 mM sodium acetate aqueous solution at pH 5.8 to prepare the enzyme solutions at 4 fold the final reaction concentration as shown in Tables 19 and 20.
Each glucosidase solution was combined with an equal volume of 200 mM sodium acetate aqueous solution at pH 5.8 and separately with an equal volume of 200 mM sodium acetate aqueous solution at pH 5.8 containing 2 mg/ml rhamnosidase R5. This is a sufficient loading of rhamnosidase to effect complete hydrolysis of the relevant rhamnose moiety within 4 hours.
CBE was adjusted to pH of 6.0 to 6.2 with 2M sodium hydroxide and an equal volume added to the enzyme solution to prepare the reaction mix (i.e. 50% CBE concentration in reaction mix) and the concentration of glucosidase and/or rhamnosidase is shown in Tables 19 and 20. The reaction mix was heated to 35 degC for the time indicated in Tables 19 and 20, after which the reaction was quenched by addition of an equal volume of MeCN containing 2% acetic acid and shaken at room temperature for 10 mins prior to centrifugation (10 min, 4 degC) to remove particulates. Samples were analysed by UV HPLC using method of Experiment 4-4.
The change in composition of the Left, Middle and Right peaks is shown in Tables 19 and 20. The composition changes by the action of the enzymes depending on the presence or absence of the partner enzyme. The extent of reaction is proportional to the enzyme concentration and the reaction time under these conditions. The tables show data for enzyme concentrations and the reaction times providing for equivalent extents of reaction. The improvement resulting from the mutations introduced for each variant is equal to the fold change in enzyme concentration×time (i.e. fold improvement=(enzyme concentration×time) for preceding variant÷(enzyme concentration×time) for later variant). A cumulative fold improvement over the original enzyme variant is calculated by the product of the individual fold improvements.

[3] = screen temp 20, pH 6, lysate loading 10%, CBE loading 80%, 100 mM Potassium phosphate, Rham None
[4] = glucosidase 1.56 mg/ml + rhamnosidase R5 0.5 mg/ml
[5] = glucosidase 1.56 mg/ml, no rhamnosidase
[6] = screen temp 35, pH 6, lysate loading 0.28%, CBE loading 75%, 100 mM Sodium acetate, Rham Present
[7] = glucosidase 0.39 mg/ml + rhamnosidase R5 0.5 mg/ml
[8] = glucosidase 0.39 mg/ml, no rhamnosidase
[9] = screen temp 20, pH 6, lysate loading 2.50%, CBE loading 80%, 100 mM Potassium phosphate, Rham Present
[10] = glucosidase 0.78 mg/ml + rhamnosidase R5 0.5 mg/ml
[11] = glucosidase 0.78 mg/ml, no rhamnosidase

B1: Variant G2: engineered glucosidase polypeptide, variant of Modestobacter marinus glucosidase SEQ ID No. 262 (protein)
chain: MNPASSTRTDTMTDTTARTDSRLTDALAALSLEQKVQLLTGRDFWNTWPIEEIGLRRILVSDGPSGVRGEVWDERDPSLNLPSATALASAWDPDIARRYGAAAAVEARRKGVDVVLGPTINLHRSPLGGRHFEAFSEDPVLTAELAAAYVTGVQDNGVGATPKHYVANDFETDRFTVDVRADERTLRELYLLAFEKAVTEARAWLVMSAYNGINGATATENDLLETPLNSEWGFDGVVVSDWTAVRSLESARSSQDLVMPGPVGPWGDALVEAVRTGAIDESVVDRKVLRILTLAQRVGALEGSPAIDPVWVEDGVALAREAAVEGTVLLENRDELPWDATSLRKVAVIGNNAAAAMTQGGGSANVLPEYTVSPLDGVRAALPDAEVSYSLGAVVQDGLVELPLAELTNPVTGGPGLRARFLTADGAELFGEDRRKSVLVYFGGDAPIAAAATYELTARWTPTESQTVRLGFFCFGAAQLYVDGELLVESDLQPSGTDLGAAFMNPLTASAEVELVAGKPVDVRLVHDLSAKEGFAAHALFLQLGTEPAEVDEDALIAEAAEAAEAADVVLVVVGTNSIVESEGYDRESLSLPGRQDDLVRAVVAANPRTVVLVNAGAPVLLPWRDDVAALLLGWFGGQEFGNAVADVLLGVAEPGGRLPTTWPAAEADVPVLSCTPVDGVVEYTEGIHIGYRAWLRSGATPAYWFGSGQGYTCVELTGVEAPSRARPGEIVTVSVEVANRGERDGKQVVQVYAEKPDSTVDRPVRWLVGSAPVRVPAGQTAQVEVAVPTRYLAHWAGGWQYEPGVYRLRVGTTAVELPLETTLEVSA
modifications: Seq ID No. 262 with mutations T365N, R357M, A473F, L474C, I475F
Cumulative FIOP (cf WT) [1, 3]: 50 | FIOP [1, 3]: 10 | % change in Left Peak [2, 4]: −26% | % change in Middle Peak [2, 4]: −82% | % change in Right Peak [2, 4]: 269% | Cumulative Fold improvement in primary enzyme loading × time [2, 4]: 32 | Fold improvement in primary enzyme loading × time [2, 4]: 4.0 | % Right Peak [2, 4]: 70% | % Left Peak [2, 4]: 22% | % Middle Peak [2, 4]: 8% | % change in Left Peak [2, 5]: −15% | % change in Middle Peak [2, 5]: −57% | % change in Right Peak [2, 5]: 213% | Cumulative Fold improvement in primary enzyme loading × time [2, 5]: 32 | Fold improvement in primary enzyme loading × time [2, 5]: 4.0 | % Right Peak [2, 5]: 55% | % Left Peak [2, 5]: 26% | % Middle Peak [2, 5]: 19%

B2: Variant G4: engineered glucosidase polypeptide, variant of Modestobacter marinus glucosidase SEQ ID No. 262 (protein)
chain: B1 chain with F44Y, V263L, F442Q, F541I
modifications: Seq ID No. 262 with mutations T365N, R357M, A473F, L474C, I475F, F44Y, F442Q, V263L, F541I
Cumulative FIOP (cf WT) [1, 6]: 300 | FIOP [1, 6]: 2.4 | % change in Left Peak [2, 7]: −28% | % change in Middle Peak [2, 7]: −79% | % change in Right Peak [2, 7]: 267% | Cumulative Fold improvement in primary enzyme loading × time [2, 7]: 128 | Fold improvement in primary enzyme loading × time [2, 7]: 2.0 | % Right Peak [2, 7]: 69% | % Left Peak [2, 7]: 22% | % Middle Peak [2, 7]: 9% | % change in Left Peak [2, 8]: −22% | % change in Middle Peak [2, 8]: −49% | % change in Right Peak [2, 8]: 208% | Cumulative Fold improvement in primary enzyme loading × time [2, 8]: 128 | Fold improvement in primary enzyme loading × time [2, 8]: 2.0 | % Right Peak [2, 8]: 54% | % Left Peak [2, 8]: 23% | % Middle Peak [2, 8]: 23%

B3: Variant G3: engineered glucosidase polypeptide, variant of Modestobacter marinus glucosidase SEQ ID No. 262 (protein)
chain: B1 chain with F44Y, F442Q
modifications: Seq ID No. 262 with mutations T365N, R357M, A473F, L474C, I475F, F44Y, F442Q
Cumulative FIOP (cf WT) [1, 9]: 125 | FIOP [1, 9]: 2.5 | % change in Left Peak [2, 10]: −31% | % change in Middle Peak [2, 10]: −79% | % change in Right Peak [2, 10]: 270% | Cumulative Fold improvement in primary enzyme loading × time [2, 10]: 64 | Fold improvement in primary enzyme loading × time [2, 10]: 2.0 | % Right Peak [2, 10]: 70% | % Left Peak [2, 10]: 21% | % Middle Peak [2, 10]: 9% | % change in Left Peak [2, 11]: −19% | % change in Middle Peak [2, 11]: −50% | % change in Right Peak [2, 11]: 206% | Cumulative Fold improvement in primary enzyme loading × time [2, 11]: 64 | Fold improvement in primary enzyme loading × time [2, 11]: 2.0 | % Right Peak [2, 11]: 53% | % Left Peak [2, 11]: 24% | % Middle Peak [2, 11]: 22%
